Experiment: soluble on expression in E. coli; label from the status in PepcDB or PDB records
With “MSLSKLGIIGLGKVGTQVLTDVQQLNLFSEIILIDDRADVASGEALDHIHSQGLINTAHIKIRSGVYQDLTDADFIVIAASEATDKNNGDRTLLAQGNHDIIKGIMSQIAEVTQEAVVILISNPVDSMVYFANQIDYPAHKIIGTGTALETSRFKTIIADHYQIDPNNVEAFVIGEHGQHAIPVWSKVHIHGMELSEFEALSDRPAIDKSHISSIINEVSMDVFYQKGWTNAAISKVTSFLIQSIALDQRTITPLTSLSSEYGLEDGAFSLPTLIDKKGIVQRFAITLDKEEERELKEAYEYIRQTIHTAQEGHHHHHH” the “soluble on expression in E. coli” value was “soluble”. In the case of “MSLSKPLYVFDLDDTLIDGDCAMIWNAFLAEKGIATERNFVEEDRRRMALYAQGKMDMAEYIAFAMQPLAQVPSTTVQDWVEECVSRWIVPKQFAQARELIAQLKQQGNTCLIISASVSFLVKTVAQRFGIEHALGIDLVSQNGCYSGNIEGVASYREGKVLRLQQWLAEQNETYHDVHFYTDSINDLPLCQHADFAYVVNPCPRLKAQAEQHGWPILSWAVEGHHHHHH”, the “soluble on expression in E. coli” value is reported as “soluble”. For “MSLSKSDDGDSEESFSISVQSGFEAMSQELCIVMCLKDLTSIVDIKTSSRPAMIGSLTDGSTETFWESGDEDKNKTKNITINCVKGINARYVSVHVDNSRDLGNKVTSMTFLTGKAVEELCRIKQVDLDSRHIGWVTSELPGGDNQIIKIELKGPENTLRVRQVKVLGWKDGESTKIAGQISASVAQQRSCEAETLRVFRLITSQVFGKLISGDAEPTPEQEEKALLSSPEGEEKATSDADLKEHMVGIIFSRSKLTNLQKQVCAHIVQAIRMEATRVREEWEHAISSKENANSQPSDEDASSDAYCFELLSMVLALSGSNVGRQYLAQQLTLLQDLFSLLHTASPRVQRQVTSLLRRVLPEVTPNRLASIIGVKSLPPADISDIIHSTEKGDWNKLGILDMFLGCIAKALTVQLKAKGTTITGTAGTTVGKGVTTVTLPMIFNSSYLRRGESHWWMKGSTPTQISEIIIRLIKDMAAGHLSEAWSRVTKNAIAETIIALTKMEEEFRSPVRCIATTRLWLALASLCVLDQDHVDRLSSGRWMGKDGQQKQMPMCDNHDDGETAAIILCNICGNLCTDCDRFLHLHRRTKTHQRQVFKEEEEAIKVDLHEGCGRTKLFWLMALADSKTMKAMVEFREHTGKPTTSSSEACRFCGSRSGTELSAVGSVCSDADCQEYAKIACSKTHPCGHPCGGVRNEEHCLPCLHGCDKSATTLKQDADDMCMICFTEALSAAPAIQLDCSHVFHLQCCRRVLENRWLGPRITFGFISCPICKNKINHIVLKDLLDPIKELYEDVRRKALMRLEYEGLHKSEAITTEGHHHHHH”, the “soluble on expression in E. coli” value was “not soluble”. For “MSLSKTLSMLALLPFAAQVFAAPAEFWYSHGGATGSAIADLCRSFNAQREDGDRLHCIRQGSYEQTLQKTVAAYRAGIGPALVEIYDVATPDMLLGGATLPVEAIMAGHQRAYSDDTFLPALRRYYSDDHGALAAQPFAASTAVLYTHRNALAAAGISEPPATWEAFATALRALKKNGHACPVVSEFSPWIWLEQTSAAQGTEVAVRAAGTERYQFDKGAHLRLMNDLAQWTAEGLVVHEDSTRSGQQALAFATDDCAMLIDSTGAWNIVHSTLKSDIDVTALPIYANTQRRTNAPGGSSLWVMRGHAARDYRLVSEFLAFVLQPDNQLVFSARTGYLPVTQAAAARLQSAGREPSAVMVGLAALHDIDGQPSKPLRCGFITLMRLVWSQEMENALAGRQSVEHALRQTTLRANELLSLFQQMHQAQASNESDGATEGHHHHHH”, the “soluble on expression in E. coli” value was “soluble”. For “MSLSLDTAREAVQKKPLLYDKGGEEHYNVISAFIKSMRGSDPDGALYWLARMIEAGEDPIFILRRMVILASEDIGNADPRALQVAVTALQGFQLVGMPEGRIIIGQAVTYLATAPKSNASYVGIDAALAEVRKSGALPVPLHIRNAPTRLMKDLGYGTGYRYAHDYAEGYVAQDYLPDQIKGRKYYDPTGHGYEKSIKERMEWLKGKKEGHHHHHH”, the “soluble on expression in E. coli” value was “not soluble”. For “MSLSNDGRRQIIESAGRSMAEGYAETLRAIDPTLAINLFSPADEADRLPAPLSSYDGVVVTGSSLHVYRTEPAVTRQIDFLREVFDAGVPVFGSCWGLQLGVVAAGGTVIPNPKRREVPFARSVTLTAAGKTHQMHQSRPAAFDALAIHLDVVSVLPPDSVVTAFNDMAAVQAVEFRSGRSLFWGVQYHPEFELPYMASILRRNASSLVAEAAFSSEGELVEMVDAMDSHGNDGDRVRHPSLLPDDVLDRHTRTIEIANWLKMLSSGEGHHHHHH”, the “soluble on expression in E. coli” value was “not soluble”. With “MSLSNDISILFVEDDKEVRAQISDFLTSNMFKDVYVANNGKDGLLKYNIHKPDIVLSDLNMPIMDGLEMSRAIKALDENTPILLITSNFEKNVTEAAVDIGIEGCLFKPLSLNRVEKILTKYIEKIMFQREFKNKQKLLEQYKSIIDISSSVTKTDINGIITYVNNPFCDMSGYSKDELLGKNHTIISHPDNSKEFYEEIYSTLRDKKIWRGHIKNRRKNGDSYYESSVIAPILDENDEIVECISLKQDITELYAEGHHHHHH” the “soluble on expression in E. coli” value was “soluble”. With “MSLSNGELAILVFGYPETMANQVIAYFQEFGTILEDFEVLRKPQAMTVGLQDKQFVPIFSGNSWTKITYDNPASAVDALLENGAVFNGVLLGVIPYTKDAVERLQKRKLTSSEDIGSGITTAAAETKHKDQGTIENDIPSQYMAKLDIKDGSNLFISTNTTSGTKVDPKKEQKKGVVGTVLRYFFGFNEGHHHHHH” the “soluble on expression in E. coli” value was “soluble”. For “MSLSNIAVSEKDLQRFCRDLLKQSLPDEEAEVIAETLVDADLRGVTSHGVQRVAGYLKRMEDGIIERKTDISVVQDSFATALLDANNGWGQVAGVKAMEMAIQKAGQYGTSFVGVSNSNHFGTASFYTRMAAEKGFIGISMTNASPIMVPFGAKEPSLGPNPISISIPAGEGKKPIILDMSTSNVARGKIMVAKKNKESIPEGWAITKDGKQTTDADEAWEGFVLPMGPKGSGLAIIIDILSGVLTGSLFGKRIPRQYDDPYPQQLGHLFGAINIENFGEPELFYQNVLEKIEETISSEPSEGFDQVYMPGDMESQRKKEYKENGIPLSQEIINELRKTGEKYGVDLEHYLSQNKQREGHHHHHH”, the “soluble on expression in E. coli” value was “soluble”. With “MSLSNNKQSSTNDGKISIVTSTNVYADIAKNIVGKYGSAKAIIKNSATDPHDFEPTTQDAKELSSTNIIVANGLGYDSWMNKLASSVDKKPVLVGEELMKLKKGANPHIWYSLSMPTEYVDYLVKRLSKIDSKHKAYFEANGKKYLAKINQVKALAKNSKKTDKMVFVSEPVFDYALAEAGYKIGDKDFEKAVENNTDPSPKTINRMTNDIKNKKIAFFVNNTQSSSSTVKTFVKLAKQNNIPVLNVRETIPNHTTYLNWMKENYQNLANISKEGHHHHHH” the “soluble on expression in E. coli” value was “not soluble”. With “MSLSNSPLPPNATPMERALAAVTERLEAIPLPYPDLWNPDTCPAGHLPWLAWTLSVDDWKADWSDAVKRSRLRSAMAIQRRKGTANSVRMVVASFGGAVTIREWWQQQPRGQPHTFELTLTLNGSDGRAASARFVDEVIAEVERTKPVRSHFGFVQGLQATGNVSLVTGVRIINYRRLSMMAQGEGHHHHHH” the “soluble on expression in E. coli” value was “not soluble”. With “MSLSPLEMALLVHRGEFHLRELEPELPLEKFLKNADPKKTRKFLEKCGKEELERQKELIRKHNVKLVSFWEDDYPQHLREIRYPPAVLFVRGDAELLKEKCVGVVGTRRPTSYGVNVTKRFVKLLSEYFVIVSGMAFGIDSVAHKEALSSGGKTVAVLGTGVDVVYPRSNERLFHEIVKNGCVVSEYPMGTRARKHHFPARNRIIAGLSDAIIVTEAPIKSGALITVKFALESGRDVFAVPGDIDRKTSEGTNYLIKSGAYPLTDEEDLETHFGIRRIASPSLDDDKKKIYDLLRSSPKTVDELVEELGWSVSEVLRVISEMELMGMIWFDGGAYRLLGEGHHHHHH” the “soluble on expression in E. coli” value was “soluble”. For “MSLSPLSKLDKIAVSGNKQLTENEVRKESGLEIGEFVIGISNGKTEDTLKKNTLIKDATVSKEGINDVQINITEFKTIGYQQQDGKYYDVLESGIMLTDQPRQFPIGNDLLFQNFKNGKTLEKMVAQINKLPKDVVSSISEVIYSPTKTDKNHIKLYMNDGNQVSADISTFAEKMQHYPAIVAQLAKGQKGVIDIEVGSYFQSYYQQNAEKKAAEEAAKEKKETNEGHHHHHH”, the “soluble on expression in E. coli” value was “soluble”. In the case of “MSLSQASSTDTPFVIAGRTYGSRLLVGTGKYKDLDETRRAIEASGAEIVTVAVRRTNIGQNPDEPNLLDVIPPDRYTILPNTAGCYDAVEAVRTCRLARELLDGHNLVKLEVLADQKTLFPNVVETLKAAEQLVKDGFDVMVYTSDDPIIARQLAEIGCIAVMPLAGLIGSGLGICNPYNLRIILEEAKVPVLVDAGVGTASDAAIAMELGCEAVLMNTAIAHAKDPVMMAEAMKHAIVAGRLAYLAGRMPRKLYASASSPLDGLIDEGGSHHHHHH”, the “soluble on expression in E. coli” value is reported as “soluble”.

— the DeepSol protein solubility set
